Assay results reported in WO2012008397A1 (dated 2012).
Changes are numbered by the printed parent chain. Each block holds one binder with its values, some of them ahead of it.

Target: T1, His-Fibronectin type III domain (426-540) (human, UniProt P29317 426-540)
T1 construct: also called His-Fibrinctin type III domain (426-540); Fibronectin type III domain of EPHA2; not shown: histidine tag added to the amino terminus
Assay: SPR (Biacore T100), antibody captured on anti-human IgG(Fc), antigen as analyte, 1:1 model

T1 sequence (P29317 426-540): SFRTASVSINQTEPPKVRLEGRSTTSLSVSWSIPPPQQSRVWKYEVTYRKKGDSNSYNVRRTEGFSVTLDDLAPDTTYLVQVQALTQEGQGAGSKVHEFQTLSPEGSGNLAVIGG

B1: 348-H4-357-L4 (antibody, human IgG1, kappa, V domains shown)
VH: QVQLVQSGAEVKKPGASVKVSCKASGYTFTHYSMHWVRQAPGQGLEWMGWINTYTGEPTYADDFKGRFVFSLDTSVSTAYLQLSSLKAEDTAVYYCATYYRYERDFDYWGQGTLVTVSS
VL: DIVMTQSPLSLPVTPGEPASISCRSSQSIVHSSGITYLEWYLQKPGQSPQLLIYKVSNRFSGVPDRFSGSGSGTDFTLKISRVEAEDVGVYYCFQGSHVPYTFGQGTKVEIKR
notes: human IgG1 / kappa; also called antibody of humanized heavy chain of SH348-1 and humanized light chain of SH357-1; swapped antibody
Kd: 0.37 nM

B2: 348-H4-357-L5 (antibody, human IgG1, kappa, V domains shown)
VH: B1 VH
VL: B1 VL with I2V, V3L, Q50K
notes: human IgG1 / kappa
Kd: 0.37 nM

The remaining lines, values ahead:

Kd: 0.32 nM
B3: 348-H5-357-L4 (antibody, human IgG1, kappa, V domains shown)
VH: B1 VH with R38K, E46K, V69A, D73E, Y95F
VL: B1 VL
notes: human IgG1 / kappa

Kd: 0.3 nM
B4: 348-H5-357-L5 (antibody, human IgG1, kappa, V domains shown)
VH: B1 VH with R38K, E46K, V69A, D73E, Y95F
VL: B1 VL with I2V, V3L, Q50K
notes: human IgG1 / kappa
